{"source": "paper PMC5466623", "target": "genome-edited CXCR4 fused to Nluc (human (endogenous in HEK293FT)) (UniProt P61073)", "sequence (P61073 whole entry, the tested form may be a part)": "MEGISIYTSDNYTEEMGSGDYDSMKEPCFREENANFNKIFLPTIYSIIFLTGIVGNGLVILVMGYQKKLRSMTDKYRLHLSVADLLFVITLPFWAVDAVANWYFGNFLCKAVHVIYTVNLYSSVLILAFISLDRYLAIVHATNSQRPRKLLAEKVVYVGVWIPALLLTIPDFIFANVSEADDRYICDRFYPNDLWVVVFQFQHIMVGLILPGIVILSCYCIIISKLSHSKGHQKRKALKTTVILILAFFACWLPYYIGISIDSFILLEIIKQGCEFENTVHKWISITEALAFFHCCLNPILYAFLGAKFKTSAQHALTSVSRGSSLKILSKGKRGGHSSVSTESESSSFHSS", "data": [{"substance": "CXCL12 (from UniProt P48061 22-93) (ligand)", "values": [{"measurement": "inhibition of forskolin (5 µM)-mediated cAMP accumulation (HTRF) in HEK293FT cells expressing genome-edited CXCR4/Nluc", "value": 8.6, "unit": "pEC50"}]}]}
